Results on 7 molecules are retold here after article PMC10227063 (Communications Biology, 2023).

As a reminder, the Kd is the constant that tells how readily two partners part at equilibrium. Broadly, the Km is the concentration of substrate that gives half-maximal velocity. By Vmax is commonly meant the rate approached at saturating substrate.

For data set [1], the target named is T1, YfkE (Bacillus subtilis, UniProt O34840).
T1 construct: gene chaA
The data set is described as follows: biochemical.

Substrate in data set [2]: O=P(O)(O)O
Briefly: cells, lysate or membranes. Particulars: outward H+ gradient by NADH, room temperature, labelled compound.

[3] abbreviates: co-substrate Ca2+, 5x more vesicles than WT.
Setting [4] is: co-substrate Ca2+, residue printed R3 in table but R4 in text.

Take `O=P(O)(O)O` [inorganic phosphate]: the Kd in data set [1] amounted to 930 ± 360 µM.

B1: YfkE (Bacillus subtilis subsp. subtilis str. 168) (protein)
chain: MNRIFFILVAAGVPLSVIGSLMHWPSAVLFAVYCVTIIALASYMGRATESLSIIAGPRIGGLLNATFGNAVELIISLFALKEGLTGIVLASLTGSVLGNLLLVAGLSFFVGGLKYKRQEFNIHDARHNSGLLIFAIIVAFVIPEVFSVGMGNASKLNLSIGISIIMILLYVAALYFKLVTHRGVYQPNNAAQTEEEEEPEWSGKVATIVLFAATIVVAYISENLVHTFHSVAEQFGWSELFIGVIIVAIVGNAAEHASAIIMAFKNKMDIAVEIAVGSTLQIAMFVAPVLVICSIFFPTSMPLVFTLPELVAMVSAVLLMIAISNDGDSNWFEGATLLAAYVIMAIGFFLL
Regarding B1, the Km in data set [2] (co-substrate Ca2+ 0.1 mM) is listed as 4.9 mM.

B2: YfkE (Bacillus subtilis subsp. subtilis str. 168; N99A) (protein)
chain: MNRIFFILVAAGVPLSVIGSLMHWPSAVLFAVYCVTIIALASYMGRATESLSIIAGPRIGGLLNATFGNAVELIISLFALKEGLTGIVLASLTGSVLGALLLVAGLSFFVGGLKYKRQEFNIHDARHNSGLLIFAIIVAFVIPEVFSVGMGNASKLNLSIGISIIMILLYVAALYFKLVTHRGVYQPNNAAQTEEEEEPEWSGKVATIVLFAATIVVAYISENLVHTFHSVAEQFGWSELFIGVIIVAIVGNAAEHASAIIMAFKNKMDIAVEIAVGSTLQIAMFVAPVLVICSIFFPTSMPLVFTLPELVAMVSAVLLMIAISNDGDSNWFEGATLLAAYVIMAIGFFLL
B2: in data set [2] (setting [3]), the Km was 12.4 mM and the Vmax came to 3.9e-05 µmol/min/mg.

B3: YfkE (Bacillus subtilis subsp. subtilis str. 168; Q281A) (protein)
chain: MNRIFFILVAAGVPLSVIGSLMHWPSAVLFAVYCVTIIALASYMGRATESLSIIAGPRIGGLLNATFGNAVELIISLFALKEGLTGIVLASLTGSVLGNLLLVAGLSFFVGGLKYKRQEFNIHDARHNSGLLIFAIIVAFVIPEVFSVGMGNASKLNLSIGISIIMILLYVAALYFKLVTHRGVYQPNNAAQTEEEEEPEWSGKVATIVLFAATIVVAYISENLVHTFHSVAEQFGWSELFIGVIIVAIVGNAAEHASAIIMAFKNKMDIAVEIAVGSTLAIAMFVAPVLVICSIFFPTSMPLVFTLPELVAMVSAVLLMIAISNDGDSNWFEGATLLAAYVIMAIGFFLL
With B3, in data set [2] (setting [3]), the Michaelis-Menten constant (Km) was determined as 29.9 mM and the Vmax came to 1.9e-05 µmol/min/mg.

B4: YfkE (Bacillus subtilis subsp. subtilis str. 168; H256A) (protein)
chain: MNRIFFILVAAGVPLSVIGSLMHWPSAVLFAVYCVTIIALASYMGRATESLSIIAGPRIGGLLNATFGNAVELIISLFALKEGLTGIVLASLTGSVLGNLLLVAGLSFFVGGLKYKRQEFNIHDARHNSGLLIFAIIVAFVIPEVFSVGMGNASKLNLSIGISIIMILLYVAALYFKLVTHRGVYQPNNAAQTEEEEEPEWSGKVATIVLFAATIVVAYISENLVHTFHSVAEQFGWSELFIGVIIVAIVGNAAEAASAIIMAFKNKMDIAVEIAVGSTLQIAMFVAPVLVICSIFFPTSMPLVFTLPELVAMVSAVLLMIAISNDGDSNWFEGATLLAAYVIMAIGFFLL
Consider B4, for which, in data set [2] (setting [3]), the Km is 34.2 mM and the Vmax amounted to 5.1e-05 µmol/min/mg.

B5: YfkE (Bacillus subtilis subsp. subtilis str. 168; N252A) (protein)
chain: MNRIFFILVAAGVPLSVIGSLMHWPSAVLFAVYCVTIIALASYMGRATESLSIIAGPRIGGLLNATFGNAVELIISLFALKEGLTGIVLASLTGSVLGNLLLVAGLSFFVGGLKYKRQEFNIHDARHNSGLLIFAIIVAFVIPEVFSVGMGNASKLNLSIGISIIMILLYVAALYFKLVTHRGVYQPNNAAQTEEEEEPEWSGKVATIVLFAATIVVAYISENLVHTFHSVAEQFGWSELFIGVIIVAIVGAAAEHASAIIMAFKNKMDIAVEIAVGSTLQIAMFVAPVLVICSIFFPTSMPLVFTLPELVAMVSAVLLMIAISNDGDSNWFEGATLLAAYVIMAIGFFLL
In the case of B5, in data set [2] (setting [3]), the Km amounted to 8.2 mM and the Vmax is 1.9e-05 µmol/min/mg.

B6: YfkE (Bacillus subtilis subsp. subtilis str. 168; R3A) (protein)
chain: MNAIFFILVAAGVPLSVIGSLMHWPSAVLFAVYCVTIIALASYMGRATESLSIIAGPRIGGLLNATFGNAVELIISLFALKEGLTGIVLASLTGSVLGNLLLVAGLSFFVGGLKYKRQEFNIHDARHNSGLLIFAIIVAFVIPEVFSVGMGNASKLNLSIGISIIMILLYVAALYFKLVTHRGVYQPNNAAQTEEEEEPEWSGKVATIVLFAATIVVAYISENLVHTFHSVAEQFGWSELFIGVIIVAIVGNAAEHASAIIMAFKNKMDIAVEIAVGSTLQIAMFVAPVLVICSIFFPTSMPLVFTLPELVAMVSAVLLMIAISNDGDSNWFEGATLLAAYVIMAIGFFLL
On to B6, for which, in data set [2] (setting [4]), the Michaelis constant (Km) is given as 5.5 mM and the maximum rate (Vmax) was 7.5e-05 µmol/min/mg.
